Reference: patent publication US20190144550A1 (Pfizer, published 2019)
Where a chain is given by its changes, count along the chain named.

B1: 42G9 (antibody, V domains shown)
VH: QVTLKESGPVLLKPTETLTLTCTVSGFSLSNPRMGVSWIRQPPGKALEWFAHIFSTDEKSLKLSLRSRLTLSKDTSKSQVVLTMTNMAPVDSATYYCARDSSNYEGYFDFWGQGTLVTVSS
VL: EVVLTQSPATLSVSPGERATLSCRASQSVRSNLAWYQQKSGQAPRLLIYGSTIRATGVPARFSGSGSGTEFTLTISSLQSEDFAVYYCQQYSDWPFTFGPGTKVDIK
notes: Hybridoma supernatant (AlivaMab mouse); captured/detected via mouse Fc; also called mAb 42G9
B2: 12H6 (antibody, V domains shown)
VH: B1 VH with L12V, P32A, F50L, L61I, K62R, L63R, A88D, S92T, F110Y
VL: EVVMTQSPATLSVSPGERATLSCRASQGVSSNFAWYQQRPGQSPRLLLYGASTRATGVPGRFSGSGSGTENILTISSLQSEDFAIYFCQQYKDWPFTFGPGSKVDIK
notes: Hybridoma supernatant (AlivaMab mouse); captured/detected via mouse Fc
B3: 11B11 (antibody, V domains shown)
VH: QVTLKESGPVLVKPTETLTLTCTVSGFSLSNAKMGVSWIRQPPGKALEWLAHIFSTDEKSIRRSLRSRLTMSKDTSKSQVVLTMTNMDPVDTATYYCVRDSSNYEGYFDYWGQGTLVTVSS
VL: B2 VL with V3L, G28S, S31T, S43A, Y49F, V58I, D105E
notes: as for B2
B4: 32A10 (antibody, V domains shown)
VH: B3 VH with K33R, M71L, Y96F, V98A
VL: B2 VL with A19V, G28S, S43A, S52T, V58L
notes: as for B2
B5: 46E10 (antibody, V domains shown)
VH: B3 VH with K33R, M71L, T83I, V98A
VL: B2 VL with A9P, T10N, G28S, S30T, I85V
notes: as for B2
B6: 21E11 (antibody, V domains shown)
VH: B3 VH with A32V, K33R, L50F, T56S, M71L, V98A, Y110F
VL: DMVVTQSPATLSVSPGERATLSCRASQSVGSDLAWYQQPPGQSPRLLIYGASTRATGVPARFSGSGSGTDFTLTITSLESEDFAVYYCQQYNDWPFTFGPGTKVDIK
notes: as for B2
B7: 49B11 (antibody, V domains shown)
VH: B3 VH with A32V, K33R, L50F, T56S, M71L, V98A
VL: B6 VL with D1E, V3E, S28N, V29I, P39Q, P40S, S43A, Y49S, A60T, E79Q
notes: as for B2
B8: 19A9 (antibody, V domains shown)
VH: B1 VH with K5E, L12V, P32A, L47P, K62R, A88D, S92T, F110Y
VL: EVVMTQSPATLSVSPGERATLSCRASQSVNRNLAWYQQKPGQAPRLLIFGTSTRATGIPARFSGSGSGTEFTLTIDSLQSEHSGLYYCQQYNDWPFTFGPGTKVDIK
notes: as for B2
B9: 21E7 (antibody, V domains shown)
VH: B1 VH with K5E, L12V, P32A, L47P, K62R, A88D, S92T, F110Y
VL: B8 VL with E1D, M4L, R31S, K39N, T51S, R61S, D76N, G84A, L85V
notes: as for B2
B10: 20B9 (antibody, V domains shown)
VH: QVTLKESGPVLVKPTETLTLTCTVSGFSLSNARMGVSWIRQPPGKALEWLGHIFSTDEKSYSTSLRGRITISKDTSRGLVVLTLTNMDPVDTATYYCARDSSNYEGYFDFWGPGFLVTVSS
VL: EIVMTQSPATLSVSPGERATLSCRVSQSIGANLAWYQQKFGQAPRLLIYGASTRATGIPVRFSGGGSGTEFTLTISSLQSEDFAIYSCQQYIYWPFTFGPGTTVDIK
notes: as for B2
B11: 12B2 (antibody, V domains shown)
VH: B3 VH with A32P, K33R, A51G, T56S, I61Y, R63L, T70S, M71I, E105G
VL: EVVMTQSPATLSVSPGERATLSCRASQSVINNLAWYQQKPGQAPRLLIYGTSTRATDIPARFSGSGSGTEFTLTISSLQSEDFAVYYCQDYNNWPFTFGPGTKVDIK
notes: as for B2
B12: 11F10 (antibody, V domains shown)
VH: QVTLKESGPVLVKPIETLTLTCTVCGFSLSNPRMGVSWIRQPPGKALEWLGHIFSSDEKSYRLFLRSRLSISKDTSKSQVVLTMTNMDPVDTATYYCARDSSDYEGYFDYWGQGTLVTVSS
VL: EIVMTQSPATLSVSPGERTTLSCRASQSVGSNLAWYQQKPGQAPRLLIYGASTRASGVPARFSGSGSGTEFTLTISSLQSEDFAVYSCQEYNNWPFTFGQGTKVEIK
notes: as for B2
B13: 29D5 (antibody, V domains shown)
VH: QVTLKESGPVLVKPTETLTLTCTVSGFSLSNPRMGVSWLRQPPGKALEWFAHIFSTDEKSYSPSLRGRLTVSKDTSKSQVVLTLTNMDPVDTATYYCARDSSNYEGYFDYWGQGTLVTVSS
VL: KIVMTQSPATLSVSPGERATLSCRANQIVSSNLAWYQQKPGQAPRLLVFGTSTRATGIPIRFSGSGSGTEFTLTVSSLQSEDFAVYVCQQYNDWPFTFGPGTKVDIK
notes: as for B2
B14: 14C11 (antibody, V domains shown)
VH: B3 VH with S30N, K33R, L50F, I61F, R63T, M71L, V98A, T115I
VL: EIVMTQSPATLSVSPGERATLSCRASQSVSNNLAWYQQKPGQAPRLLIYGASTRATGVPARFSGSDSGTEFSLTISSLQSEDFAVYFCQQYKDWPFTFGPGTKVEIK
notes: as for B2

The binders below were run against T1, 8-histidine tagged recombinant wild-type protein EGFRwt (UniProt P00533 25-645, limits assumed) (assay: SPR, captured by anti-mouse Fc).
T1 construct: not shown: 8-histidine tag
B1: no binding (tested: 1000 nM).
B2: no binding (tested: 1000 nM).
B3: no binding (tested: 1000 nM).
B4: no binding (tested: 1000 nM).
B5: no binding (tested: 1000 nM).
B6: no binding (tested: 1000 nM).
B7: no binding (tested: 1000 nM).
B8: no binding (tested: 1000 nM).
B9: no binding (tested: 1000 nM).
B10: no binding (tested: 1000 nM).
B11: no binding (tested: 1000 nM).
B12: no binding (tested: 1000 nM).
B13: no binding (tested: 1000 nM).
B14: no binding (tested: 1000 nM).

What follows are binders tested against T2, Monomeric 8-histidine tagged human EGFRvIII extracellular domain (human, UniProt P00533 298-645) (assay: SPR, captured by anti-mouse Fc, 37 C).
T2 construct: Analyte in all SPR assays; not shown: 8-histidine tag
Text: To generate human antibodies against EGFRvIII, transgenic AlivaMab mice (Ablexis LLC, San Francisco, Calif.) were immunized with alternating schedule of paraformaldehyde-fixed rat glioblastoma cell line expressing EGFRvIII, F98-npEGFRvIII (American Type Culture Collection, Manassas, Va.) and peptides (SEQ ID NO: 227: […]) directed to the junction region in EGFRvIII. Hybridomas were generated using standard techniques. To determine the binding affinity and specificity of these hybridomas to EGFRvIII, antibodies in culture supernatants were captured by anti-mouse Fc using Biacore™ T200 biosensor equipped with anti-mouse Fc coupled CM4 sensor chips (Biacore™ AB, Uppsala, Sweden—now GE Healthcare). Monomeric 8-histidine tagged human EGFRvIII extracellular domain was then injected as the analyte at 10-fold dilution series starting with top concentration 1000 nM. Affinity of anti-EGFRvIII antibodies towards human EGFRvIII was measured at 37° C.
In the case of B1, the Kd is reported as 8.2 nM, the koff is reported as 0.000563 s⁻¹ and the kon is reported as 68800 M⁻¹ s⁻¹.
For B2, the Kd was 12.4 nM, the koff was 0.000733 s⁻¹ and the kon was 59300 M⁻¹ s⁻¹.
B3 was tested, and the Kd was 21.7 nM, the koff was 0.00113 s⁻¹ and the kon was 52100 M⁻¹ s⁻¹.
B4 gave a Kd of 9.6 nM, a koff of 0.000626 s⁻¹ and a kon of 65400 M⁻¹ s⁻¹.
B5 showed a Kd of 12 nM, a koff of 0.000716 s⁻¹ and a kon of 59700 M⁻¹ s⁻¹.
In the case of B6, the Kd is reported as 9.5 nM, the koff is reported as 0.000632 s⁻¹ and the kon is reported as 66600 M⁻¹ s⁻¹.
Work on B7 yielded a Kd of 9.1 nM, a koff of 0.000695 s⁻¹ and a kon of 76400 M⁻¹ s⁻¹.
Binder B8 has a Kd of 18.6 nM, a koff of 0.00104 s⁻¹ and a kon of 55800 M⁻¹ s⁻¹.
Work on B9 yielded a Kd of 19.9 nM, a koff of 0.0013 s⁻¹ and a kon of 65200 M⁻¹ s⁻¹.
For B10, the Kd was 32.1 nM, the koff was 0.0015 s⁻¹ and the kon was 46700 M⁻¹ s⁻¹.
In the case of B11, the Kd is reported as 24.3 nM, the koff is reported as 0.00179 s⁻¹ and the kon is reported as 73800 M⁻¹ s⁻¹.
Binder B12 has a Kd of 42.4 nM, a koff of 0.00281 s⁻¹ and a kon of 66300 M⁻¹ s⁻¹.
B13 was tested, and the Kd was 41.6 nM, the koff was 0.00424 s⁻¹ and the kon was 102000 M⁻¹ s⁻¹.
B14 was tested, and the Kd was 78.5 nM, the koff was 0.00593 s⁻¹ and the kon was 75500 M⁻¹ s⁻¹.

These binders were tested against T3, human EGFRvIII expressed on cells (human, UniProt P00533 298-1210) (assay: flow cytometry, F98-npEGFRvIII against F98, F98-EGFRwt and A431 cells).
T3 construct: the F98-npEGFRvIII line was obtained from ATCC and its construct is not described; also called F98-npEGFRvIII; F98-EGFRvIII
In the case of B1, the “fold MFI on EGFRvIII expressing cell line over non-expressing cell lines” value (“fold MFI … over non-expressing cell lines” for short) is reported as ≥ 10 fold.
B2 was tested, and the “fold MFI … over non-expressing cell lines” value was ≥ 10 fold.
For B3, the “fold MFI … over non-expressing cell lines” value was ≥ 10 fold.
In the case of B4, the “fold MFI … over non-expressing cell lines” value is reported as ≥ 10 fold.
With B5 the “fold MFI … over non-expressing cell lines” value was ≥ 10 fold.
For B6, the “fold MFI … over non-expressing cell lines” value was ≥ 10 fold.
In the case of B7, the “fold MFI … over non-expressing cell lines” value is reported as ≥ 10 fold.
In the case of B8, the “fold MFI … over non-expressing cell lines” value is reported as ≥ 10 fold.
For B9, the “fold MFI … over non-expressing cell lines” value was ≥ 10 fold.
With B10 the “fold MFI … over non-expressing cell lines” value was ≥ 10 fold.
For B11, the “fold MFI … over non-expressing cell lines” value was ≥ 10 fold.
B12 was tested, and the “fold MFI … over non-expressing cell lines” value was ≥ 10 fold.
B13 was tested, and the “fold MFI … over non-expressing cell lines” value was ≥ 10 fold.
B14 was tested, and the “fold MFI … over non-expressing cell lines” value was ≥ 10 fold.

These binders were tested against T3, human EGFRvIII expressed on cells (assay: flow cytometry, F98-npEGFRvIII cells).
With B1 the “% positive” value was 98.5% and the MFI was 3250.
For B2, the “% positive” value was 98.3% and the MFI was 3440.
For B3, the “% positive” value was 98.2% and the MFI was 3390.
For B4, the “% positive” value was 98.3% and the MFI was 3350.
B5 was tested, and the “% positive” value was 98.7% and the MFI was 2990.
B6 was tested, and the “% positive” value was 98.5% and the MFI was 3100.
In the case of B7, the “% positive” value is reported as 98.5% and the MFI is reported as 2980.
With B8 the “% positive” value was 98.1% and the MFI was 3100.
In the case of B9, the “% positive” value is reported as 98.5% and the MFI is reported as 3100.
For B10, the “% positive” value was 98.3% and the MFI was 3420.
With B11 the “% positive” value was 97.9% and the MFI was 2750.
In the case of B12, the “% positive” value is reported as 98% and the MFI is reported as 3280.
B13 was tested, and the “% positive” value was 97.9% and the MFI was 2830.
B14 was tested, and the “% positive” value was 98.2% and the MFI was 3210.
